In patent US20070286806A1, “Methods and Compositions for Modulating a Steroid Receptor” (Mount Sinai Hospital, priority 2004, published 2007):

How the values were obtained:
Assay in all cases: One-hybrid system: PR activation domains fused to Gal4 DBD, G5-Luc reporter and western blot in SHM cells
Assay type in all cases: cell-based
activation domains of PR [1] = target: T1, activation domains of PR (Homo sapiens, UniProt P06401); details: PR650-933 (only the AF2 domain)
T1 construct: expressed in transfected cells; host or cells: SHM (Syrian hamster myocyte) cells
T1 sequence (P06401 650-933): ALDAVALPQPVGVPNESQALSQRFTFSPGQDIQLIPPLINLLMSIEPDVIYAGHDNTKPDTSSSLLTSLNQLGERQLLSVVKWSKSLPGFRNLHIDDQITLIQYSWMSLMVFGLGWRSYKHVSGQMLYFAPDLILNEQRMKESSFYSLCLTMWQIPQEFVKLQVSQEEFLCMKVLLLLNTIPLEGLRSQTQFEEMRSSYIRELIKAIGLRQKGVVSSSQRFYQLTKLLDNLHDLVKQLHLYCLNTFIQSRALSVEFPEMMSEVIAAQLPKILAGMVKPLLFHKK
Description: (§1) FIG. 6 A-F. Inhibition of PR activation domains by PSF involves different mechanisms. Segments containing individual activation domains of PR were fused to Gal4 DNA binding domain in pM vector and cotransfected with or without increasing amounts of His-PSF, together with G5 luciferase reporter vector in SHM cells. Progesterone (10 nM) was added to cells transfected with segments containing PR hormone binding domain (HBD). Luciferase activity was measured 30 hours after transfection and normalized to β-galatosidase acitvity. Data shown are the mean of three separate experiments performed in triplicate±S.E. Whole cell lysate from each transfection was western blotted with anti-Gal4 DNA binding domain (DBD) antibody (Santa Cruz) and anti-His tag antibody H-15 (Santa Cruz). Note: the empty vector pSG5 was added to the DNA mixture to ensure that the amounts of SV40 promoter in all the transfection assays are equal.
(§2) For immunoprecipitation of the endogenous PR and PSF, T47D cells cultured in 150 mm dishes were lysed in 800 μl NETN buffer containing 150 mM NaCl plus protease inhibitor cocktail. Cell lysate were then incubated with 5 μg of PR or PSF, or control mouse IgG at 4° C. overnight, followed by the addition of 30 μl of protein A/G PLUS-agarose beads (Santa Cruz) for another two hours at 4° C. Resins were washed with NETN containing 250 mM NaCl and eluted with 1×Laemmli buffer. The eluted proteins along with the whole cell extract were western blotted by PR or PSF antibody. • GST pulldown assay: GST pulldown assay was performed as previously described (20). GST and its fusion proteins were first immobilized to glutathione-Sepharose 4B affinity matrix. The matrix was then incubated at 4° C. overnight with rabbit reticulocyte lysate (Promega) containing PR or His-PSF transcribed and translated in presence of ^35S methionine. The matrix was washed three times with cold NETN buffer before adding 1 ×Laemmli buffer to elute associated proteins. The eluted proteins were separated on 10% SDS-PAGE gel. Gels were treated with Enhancer (NEN, Boston, US) dried and analyzed by autoradiography. • Cell culture and transient transfection: SHM cells and 293T cells were maintained in DMEM plus 5% FCS (Sigma) as described before (22). For experiments involving steroid exposure, the medium was substituted with phenol red free DMEM containing 5% charcoal-treated fetal bovine serum (Hyclone, Utah, USA). Transfection was performed according to manufacturers protocol (Fementas). Cells were seeded at a density to achieve 60-80% confluency the following day. The DNA and transfection reagent were mixed and added to the medium. Cell lysates were collected at least 30 hours after transfection. For luciferase assay, cells were collected in 200 μl of lysis buffer (Promega) of which 10μl was used for the luciferase and β-Gal activity assays respectively. Luciferase activity was determined by using the luciferin reagent (Promega) according to manufacture's protocol. Transfection efficiency was normalized to β-galactosidase activity. For western blots, cell lysates were collected in NETN buffer plus protease inhibitor cocktail. About 30 μg of protein extract was separated on SDS gel electrophoresis followed by western blotting with antibodies of interest. • Electrophoretic Mobility Shift Assay: PRDBD was synthesized in rabbit reticulocyte by using the TNT coupled in vitro transcription-translation system (Promega) with the vector pcDNA3 PRDBD. Full-length PR protein extract was obtained by transiently transfecting 293T cells with Flag-PRB vector. Cells were treated with 10^−8 M progesterone and nuclear fraction was extracted by the NE-PER Nuclear and Cytoplasmic Extraction Reagents Kit (Pierce). The nuclear fraction containing PRs was confirmed by western blot with the PR antibody AB-52 and used in gel shift assay. […]

activation domains of PR [2] = target: T2, activation domains of PR (Homo sapiens, UniProt P06401)
T2 construct: expressed in transfected cells; host or cells: SHM (Syrian hamster myocyte) cells
T2 sequence (P06401 1-164): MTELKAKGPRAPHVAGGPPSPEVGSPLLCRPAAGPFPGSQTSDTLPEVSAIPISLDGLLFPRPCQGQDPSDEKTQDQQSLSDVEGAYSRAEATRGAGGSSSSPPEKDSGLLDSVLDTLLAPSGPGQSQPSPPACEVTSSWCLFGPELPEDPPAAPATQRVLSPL
Description: as §1, §2

activation domains of PR [3] = target: T3, activation domains of PR (Homo sapiens, UniProt P06401); remark: listed apart in the source
T3 construct: expressed in transfected cells; host or cells: SHM (Syrian hamster myocyte) cells
T3 sequence (P06401 556-933): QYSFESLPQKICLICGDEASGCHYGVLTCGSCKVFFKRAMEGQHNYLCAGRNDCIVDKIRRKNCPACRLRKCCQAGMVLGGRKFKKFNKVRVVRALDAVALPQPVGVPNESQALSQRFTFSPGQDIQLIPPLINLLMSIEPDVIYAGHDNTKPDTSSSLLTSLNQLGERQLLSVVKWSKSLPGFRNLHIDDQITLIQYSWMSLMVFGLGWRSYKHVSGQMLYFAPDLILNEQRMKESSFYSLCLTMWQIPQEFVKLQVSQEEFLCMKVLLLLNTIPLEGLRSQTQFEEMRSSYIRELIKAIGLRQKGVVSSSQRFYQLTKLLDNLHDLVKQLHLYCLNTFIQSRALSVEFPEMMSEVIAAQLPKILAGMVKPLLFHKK
Description: as §1, §2

activation domains of PR [4] = target: T4, activation domains of PR (Homo sapiens, UniProt P06401); details: PR456-556 (AF1 domain)
T4 construct: expressed in transfected cells; host or cells: SHM (Syrian hamster myocyte) cells
T4 sequence (P06401 456-556): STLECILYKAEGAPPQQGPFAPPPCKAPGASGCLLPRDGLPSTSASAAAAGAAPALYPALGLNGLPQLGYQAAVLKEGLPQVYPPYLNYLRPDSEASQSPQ
Description: as §1, §2

activation domains of PR [5] = target: T5, activation domains of PR (Homo sapiens, UniProt P06401); remark: listed apart in the source
T5 construct: expressed in transfected cells; host or cells: SHM (Syrian hamster myocyte) cells
T5 sequence (P06401 456-650): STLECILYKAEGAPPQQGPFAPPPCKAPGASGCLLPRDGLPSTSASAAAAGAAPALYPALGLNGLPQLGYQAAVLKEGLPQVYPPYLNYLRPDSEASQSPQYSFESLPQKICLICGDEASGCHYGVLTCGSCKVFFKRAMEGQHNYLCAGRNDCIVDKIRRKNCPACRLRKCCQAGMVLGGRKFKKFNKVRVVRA
Description: as §1, §2

B1: polypyrimidine tract binding protein-associated splicing factor (protein)
chain: MSRDRFRSRGGGGGGFHRRGGGGGRGGLHDFRSPPPGMGLNQNRGPMGPGPGQSGPKPPIPPPPPHQQQQQPPPQQPPPQQPPPHQPPPHPQPHQQQQPPPPPQDSSKPVVAQGPGPAPGVGSAPPASSSAPPATPPTSGAPPGSGPGPTPTPPPAVTSAPPGAPPPTPPSSGVPTTPPQAGGPPPPPAAVPGPGPGPKQGPGPGGPKGGKMPGGPKPGGGPGLSTPGGHPKPPHRGGGEPRGGRQHHPPYHQQHHQGPPPGGPGGRSEEKISDSEGFKANLSLLRRPGEKTYTQRCRLFVGNLPADITEDEFKRLFAKYGEPGEVFINKGKGFGFIKLESRALAEIAKAELDDTPMRGRQLRVRFATHAAALSVRNLSPYVSNELLEEAFSQFGPIERAVVIVDDRGRSTGKGIVEFASKPAARKAFERCSEGVFLLTTTPRPVIVEPLEQLDDEDGLPEKLAQKNPMYQKERETPPRFAQHGTFEYEYSQRWKSLDEMEKQQREQVEKNMKDAKDKLESEMEDAYHEHQANLLRQDLMRRQEELRRMEELHNQEMQKRKEMQLRQEEERRRREEEMMIRQREMEEQMRRQREESYSRMGYMDPRERDMRMGGGGAMNMGDPYGSGGQKFPPLGGGGGIGYEANPGVPPATMSGSMMGSDMRTERFGQGGAGPVGGQGPRGMGPGTPAGYGRGREEYEGPNKKPRF
notes: expressed from transfected His-PSF vector or in vitro translated
Activation domains of PR [1]
  effect on PR650-933: no effect
Activation domains of PR [2]; PR1-164 (AF3), increasing amounts of PSF
  luciferase activity of pM PR1-164: significant dose-dependent reduction in luciferase activity
Activation domains of PR [2]; PR1-164, western blot
  pM PR1-164 protein: loss of pM PR1-164 protein
Activation domains of PR [3]; PR556-933 (DBD and AF2 domain), 10 nM progesterone
  transactivation of PR556-933: did inhibit transactivation
Activation domains of PR [3]; PR556-933, western blot
  protein level of PR556-933: without any reduction
Activation domains of PR [4]
  effect on PR456-556: no effect
Activation domains of PR [5]; PR456-650 (AF1 domain and DBD)
  transactivation of PR456-650: inhibited transactivation
Activation domains of PR [5]; PR456-650, western blot
  protein of PR456-650: enhanced degradation
